Source: patent US20220168396A1, “MULTI-RECEPTOR AGONIST AND MEDICAL USE THEREOF” (published 2022)
Square brackets hold non-standard residues; d marks the D form. Ends that are not written are not given here. Aib = CC(C)(N)C(=O)O

Tests used:
[1] = target: human glucagon-like peptide-1 receptor (human, UniProt P43220); experiment: cell-based or functional assay
[2] = target: T1, human glucose-dependent insulinotropic peptide receptor (human, UniProt P48546); experiment: cell-based or functional assay
T1 sequence: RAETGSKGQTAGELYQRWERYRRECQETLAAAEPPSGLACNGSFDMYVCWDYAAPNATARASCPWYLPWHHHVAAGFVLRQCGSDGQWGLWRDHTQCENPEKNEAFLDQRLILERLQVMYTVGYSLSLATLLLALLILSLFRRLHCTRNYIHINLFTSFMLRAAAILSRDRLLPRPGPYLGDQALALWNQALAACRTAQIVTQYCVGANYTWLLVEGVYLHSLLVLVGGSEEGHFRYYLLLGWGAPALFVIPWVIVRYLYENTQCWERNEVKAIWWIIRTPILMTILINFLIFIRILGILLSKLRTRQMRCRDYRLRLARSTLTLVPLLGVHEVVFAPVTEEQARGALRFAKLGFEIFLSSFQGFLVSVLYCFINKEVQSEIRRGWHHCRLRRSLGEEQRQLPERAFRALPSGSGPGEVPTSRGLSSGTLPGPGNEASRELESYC

Row | Binder | Activity for human GLP-1R (EC50 nM), cAMP HTRF [1] [nM] | Activity for human GIPR (EC50 nM), cAMP HTRF [2] [nM]
1 | Y[Aib]EGTFTSDYSIYLEEIAAQEFVNWLLAGGPSSGAPPPS-NH2 (N-terminus assumed; SMILES CC[C@H](C)[C@H](NC(=O)[C@H](CCC(=O)O)NC(=O)[C@H](CCC(=O)O)NC(=O)[C@H](CC(C)C)NC(=O)[C@H](Cc1ccc(O)cc1)NC(=O)[C@@H](NC(=O)[C@H](CO)NC(=O)[C@H](Cc1ccc(O)cc1)NC(=O)[C@H](CC(=O)O)NC(=O)[C@H](CO)NC(=O)[C@@H](NC(=O)[C@H](Cc1ccccc1)NC(=O)[C@@H](NC(=O)CNC(=O)[C@H](CCC(=O)O)NC(=O)C(C)(C)NC(=O)[C@@H](N)Cc1ccc(O)cc1)[C@@H](C)O)[C@@H](C)O)[C@@H](C)CC)C(=O)N[C@@H](C)C(=O)N[C@@H](C)C(=O)N[C@@H](CCC(N)=O)C(=O)N[C@@H](CCC(=O)O)C(=O)N[C@@H](Cc1ccccc1)C(=O)N[C@H](C(=O)N[C@@H](CC(N)=O)C(=O)N[C@@H](Cc1c[nH]c2ccccc12)C(=O)N[C@@H](CC(C)C)C(=O)N[C@@H](CC(C)C)C(=O)N[C@@H](C)C(=O)NCC(=O)NCC(=O)N1CCC[C@H]1C(=O)N[C@@H](CO)C(=O)N[C@@H](CO)C(=O)NCC(=O)N[C@@H](C)C(=O)N1CCC[C@H]1C(=O)N1CCC[C@H]1C(=O)N1CCC[C@H]1C(=O)N[C@@H](CO)C(N)=O)C(C)C) [Compound No. 70] | 0.017 | 0.017
2 | Y[Aib]EGTFTSDYSIYLEKEAAKEFVAWLLAGGPSSGAPPPS-NH2 (N-terminus assumed; SMILES CC[C@H](C)[C@H](NC(=O)[C@H](CO)NC(=O)[C@H](Cc1ccc(O)cc1)NC(=O)[C@H](CC(=O)O)NC(=O)[C@H](CO)NC(=O)[C@@H](NC(=O)[C@H](Cc1ccccc1)NC(=O)[C@@H](NC(=O)CNC(=O)[C@H](CCC(=O)O)NC(=O)C(C)(C)NC(=O)[C@@H](N)Cc1ccc(O)cc1)[C@@H](C)O)[C@@H](C)O)C(=O)N[C@@H](Cc1ccc(O)cc1)C(=O)N[C@@H](CC(C)C)C(=O)N[C@@H](CCC(=O)O)C(=O)N[C@@H](CCCCN)C(=O)N[C@@H](CCC(=O)O)C(=O)N[C@@H](C)C(=O)N[C@@H](C)C(=O)N[C@@H](CCCCN)C(=O)N[C@@H](CCC(=O)O)C(=O)N[C@@H](Cc1ccccc1)C(=O)N[C@H](C(=O)N[C@@H](C)C(=O)N[C@@H](Cc1c[nH]c2ccccc12)C(=O)N[C@@H](CC(C)C)C(=O)N[C@@H](CC(C)C)C(=O)N[C@@H](C)C(=O)NCC(=O)NCC(=O)N1CCC[C@H]1C(=O)N[C@@H](CO)C(=O)N[C@@H](CO)C(=O)NCC(=O)N[C@@H](C)C(=O)N1CCC[C@H]1C(=O)N1CCC[C@H]1C(=O)N1CCC[C@H]1C(=O)N[C@@H](CO)C(N)=O)C(C)C) [Compound No. 66] | 0.026 | 0.054
3 | Y[Aib]EGTFTSDYSIYLEEEAAKEFVNWLLAGGPSSGAPPPS-NH2 (N-terminus assumed; SMILES CC[C@H](C)[C@H](NC(=O)[C@H](CO)NC(=O)[C@H](Cc1ccc(O)cc1)NC(=O)[C@H](CC(=O)O)NC(=O)[C@H](CO)NC(=O)[C@@H](NC(=O)[C@H](Cc1ccccc1)NC(=O)[C@@H](NC(=O)CNC(=O)[C@H](CCC(=O)O)NC(=O)C(C)(C)NC(=O)[C@@H](N)Cc1ccc(O)cc1)[C@@H](C)O)[C@@H](C)O)C(=O)N[C@@H](Cc1ccc(O)cc1)C(=O)N[C@@H](CC(C)C)C(=O)N[C@@H](CCC(=O)O)C(=O)N[C@@H](CCC(=O)O)C(=O)N[C@@H](CCC(=O)O)C(=O)N[C@@H](C)C(=O)N[C@@H](C)C(=O)N[C@@H](CCCCN)C(=O)N[C@@H](CCC(=O)O)C(=O)N[C@@H](Cc1ccccc1)C(=O)N[C@H](C(=O)N[C@@H](CC(N)=O)C(=O)N[C@@H](Cc1c[nH]c2ccccc12)C(=O)N[C@@H](CC(C)C)C(=O)N[C@@H](CC(C)C)C(=O)N[C@@H](C)C(=O)NCC(=O)NCC(=O)N1CCC[C@H]1C(=O)N[C@@H](CO)C(=O)N[C@@H](CO)C(=O)NCC(=O)N[C@@H](C)C(=O)N1CCC[C@H]1C(=O)N1CCC[C@H]1C(=O)N1CCC[C@H]1C(=O)N[C@@H](CO)C(N)=O)C(C)C) [Compound No. 71] | 0.017 | 0.042
4 | Y[Aib]EGTFTSDYSIYLEKEAAKEFIQWLLAGGPSSGAPPPS-NH2 (N-terminus assumed; SMILES CC[C@H](C)[C@H](NC(=O)[C@H](Cc1ccccc1)NC(=O)[C@H](CCC(=O)O)NC(=O)[C@H](CCCCN)NC(=O)[C@H](C)NC(=O)[C@H](C)NC(=O)[C@H](CCC(=O)O)NC(=O)[C@H](CCCCN)NC(=O)[C@H](CCC(=O)O)NC(=O)[C@H](CC(C)C)NC(=O)[C@H](Cc1ccc(O)cc1)NC(=O)[C@@H](NC(=O)[C@H](CO)NC(=O)[C@H](Cc1ccc(O)cc1)NC(=O)[C@H](CC(=O)O)NC(=O)[C@H](CO)NC(=O)[C@@H](NC(=O)[C@H](Cc1ccccc1)NC(=O)[C@@H](NC(=O)CNC(=O)[C@H](CCC(=O)O)NC(=O)C(C)(C)NC(=O)[C@@H](N)Cc1ccc(O)cc1)[C@@H](C)O)[C@@H](C)O)[C@@H](C)CC)C(=O)N[C@@H](CCC(N)=O)C(=O)N[C@@H](Cc1c[nH]c2ccccc12)C(=O)N[C@@H](CC(C)C)C(=O)N[C@@H](CC(C)C)C(=O)N[C@@H](C)C(=O)NCC(=O)NCC(=O)N1CCC[C@H]1C(=O)N[C@@H](CO)C(=O)N[C@@H](CO)C(=O)NCC(=O)N[C@@H](C)C(=O)N1CCC[C@H]1C(=O)N1CCC[C@H]1C(=O)N1CCC[C@H]1C(=O)N[C@@H](CO)C(N)=O) [Compound No. 65] | 0.013 | 0.027
5 | Y[Aib]EGTFTSDYSIYLEKEAAKEFINWLLAGGPSSGAPPPS-NH2 (N-terminus assumed; SMILES CC[C@H](C)[C@H](NC(=O)[C@H](Cc1ccccc1)NC(=O)[C@H](CCC(=O)O)NC(=O)[C@H](CCCCN)NC(=O)[C@H](C)NC(=O)[C@H](C)NC(=O)[C@H](CCC(=O)O)NC(=O)[C@H](CCCCN)NC(=O)[C@H](CCC(=O)O)NC(=O)[C@H](CC(C)C)NC(=O)[C@H](Cc1ccc(O)cc1)NC(=O)[C@@H](NC(=O)[C@H](CO)NC(=O)[C@H](Cc1ccc(O)cc1)NC(=O)[C@H](CC(=O)O)NC(=O)[C@H](CO)NC(=O)[C@@H](NC(=O)[C@H](Cc1ccccc1)NC(=O)[C@@H](NC(=O)CNC(=O)[C@H](CCC(=O)O)NC(=O)C(C)(C)NC(=O)[C@@H](N)Cc1ccc(O)cc1)[C@@H](C)O)[C@@H](C)O)[C@@H](C)CC)C(=O)N[C@@H](CC(N)=O)C(=O)N[C@@H](Cc1c[nH]c2ccccc12)C(=O)N[C@@H](CC(C)C)C(=O)N[C@@H](CC(C)C)C(=O)N[C@@H](C)C(=O)NCC(=O)NCC(=O)N1CCC[C@H]1C(=O)N[C@@H](CO)C(=O)N[C@@H](CO)C(=O)NCC(=O)N[C@@H](C)C(=O)N1CCC[C@H]1C(=O)N1CCC[C@H]1C(=O)N1CCC[C@H]1C(=O)N[C@@H](CO)C(N)=O) [Compound No. 63] | 0.01 | 0.02
6 | Y[Aib]EGTFTSDVSIYLDKIAAQEFVNWLLAGGPSSGAPPPS-NH2 (N-terminus assumed; SMILES CC[C@H](C)[C@H](NC(=O)[C@H](CCCCN)NC(=O)[C@H](CC(=O)O)NC(=O)[C@H](CC(C)C)NC(=O)[C@H](Cc1ccc(O)cc1)NC(=O)[C@@H](NC(=O)[C@H](CO)NC(=O)[C@@H](NC(=O)[C@H](CC(=O)O)NC(=O)[C@H](CO)NC(=O)[C@@H](NC(=O)[C@H](Cc1ccccc1)NC(=O)[C@@H](NC(=O)CNC(=O)[C@H](CCC(=O)O)NC(=O)C(C)(C)NC(=O)[C@@H](N)Cc1ccc(O)cc1)[C@@H](C)O)[C@@H](C)O)C(C)C)[C@@H](C)CC)C(=O)N[C@@H](C)C(=O)N[C@@H](C)C(=O)N[C@@H](CCC(N)=O)C(=O)N[C@@H](CCC(=O)O)C(=O)N[C@@H](Cc1ccccc1)C(=O)N[C@H](C(=O)N[C@@H](CC(N)=O)C(=O)N[C@@H](Cc1c[nH]c2ccccc12)C(=O)N[C@@H](CC(C)C)C(=O)N[C@@H](CC(C)C)C(=O)N[C@@H](C)C(=O)NCC(=O)NCC(=O)N1CCC[C@H]1C(=O)N[C@@H](CO)C(=O)N[C@@H](CO)C(=O)NCC(=O)N[C@@H](C)C(=O)N1CCC[C@H]1C(=O)N1CCC[C@H]1C(=O)N1CCC[C@H]1C(=O)N[C@@H](CO)C(N)=O)C(C)C) [Compound No. 69] | 0.052 | 0.12
7 | Y[Aib]EGTFTSDYSIYLEKEAAKEFVQWLLAGGPSSGAPPPS-NH2 (N-terminus assumed; SMILES CC[C@H](C)[C@H](NC(=O)[C@H](CO)NC(=O)[C@H](Cc1ccc(O)cc1)NC(=O)[C@H](CC(=O)O)NC(=O)[C@H](CO)NC(=O)[C@@H](NC(=O)[C@H](Cc1ccccc1)NC(=O)[C@@H](NC(=O)CNC(=O)[C@H](CCC(=O)O)NC(=O)C(C)(C)NC(=O)[C@@H](N)Cc1ccc(O)cc1)[C@@H](C)O)[C@@H](C)O)C(=O)N[C@@H](Cc1ccc(O)cc1)C(=O)N[C@@H](CC(C)C)C(=O)N[C@@H](CCC(=O)O)C(=O)N[C@@H](CCCCN)C(=O)N[C@@H](CCC(=O)O)C(=O)N[C@@H](C)C(=O)N[C@@H](C)C(=O)N[C@@H](CCCCN)C(=O)N[C@@H](CCC(=O)O)C(=O)N[C@@H](Cc1ccccc1)C(=O)N[C@H](C(=O)N[C@@H](CCC(N)=O)C(=O)N[C@@H](Cc1c[nH]c2ccccc12)C(=O)N[C@@H](CC(C)C)C(=O)N[C@@H](CC(C)C)C(=O)N[C@@H](C)C(=O)NCC(=O)NCC(=O)N1CCC[C@H]1C(=O)N[C@@H](CO)C(=O)N[C@@H](CO)C(=O)NCC(=O)N[C@@H](C)C(=O)N1CCC[C@H]1C(=O)N1CCC[C@H]1C(=O)N1CCC[C@H]1C(=O)N[C@@H](CO)C(N)=O)C(C)C) [Compound No. 64] | 0.02 | 0.033
